Here are results for two molecules from article PMC6060420, “Persulfide Dioxygenase From Acidithiobacillus caldus: Variable Roles of Cysteine Residues and Hydrogen Bond Networks of the Active Site” (Frontiers in Microbiology, 2018).

One assay has as its target T1, AcPDO (Acidithiobacillus caldus, UniProt A0A2P9DTT9).
T1 construct: gene pdo
In words: MALDI-TOF MS of tryptic peptides. The settings on record: covalent; cysteine-GSH adducts at C87, C224, C137 after […] min with […] GSSH, pH […]. The class given is binding.

In assay [1] the target is persulfide dioxygenase from Acidithiobacillus caldus C-SH12 (AcPDO) (Acidithiobacillus caldus C-SH12). In words: SEC; gel permeation chromatography, Superose 6 HR 10/30, previously frozen AcPDO, 2 M guanidinium chloride in 150 mM Tris/HCl pH 8, after 1 h at 25°C, 0.5 ml/min; tetramer to dimers. A general note: In gel filtration, larger molecules generally elute earlier.
For assay [2] the target is unchanged. In words: SEC; gel permeation chromatography, Superose 6 10/300 on an Äkta system, freshly prepared AcPDO (0.5 mg protein); standards cytochrome c, conalbumin, aldolase, catalase.
For assay [3] the target is unchanged. Description: native gel or EMSA; gel of urea-treated AcPDO (Supplementary Figure S6B), urea up to 8 M; 54-kDa dimer band. On the technique in general: In EMSA bound probe runs differently from free probe, usually more slowly.
Assay [4] has the same target. Description: SDS-PAGE with Western blot; 10% acrylamide Tris-tricine SDS gel of purified AcPDO, detection with HRP-conjugated anti-Strep-tag antibody. On the technique in general: In western blotting, separated proteins are transferred to a membrane and probed.

T1 sequence (A0A2P9DTT9 1-235 limits assumed): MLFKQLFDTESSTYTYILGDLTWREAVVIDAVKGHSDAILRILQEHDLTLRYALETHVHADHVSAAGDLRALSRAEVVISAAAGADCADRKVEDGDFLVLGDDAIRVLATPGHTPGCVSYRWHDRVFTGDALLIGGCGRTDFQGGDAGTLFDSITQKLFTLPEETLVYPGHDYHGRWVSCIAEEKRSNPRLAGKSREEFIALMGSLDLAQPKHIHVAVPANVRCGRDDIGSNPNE

With `N[C@@H](CCC(=O)N[C@@H](CSS)C(=O)NCC(=O)O)C(=O)O` [GSSH], the “MALDI-TOF MS of tryptic peptides” value at AcPDO is on record as “cysteine-GSH adducts were identified after the enzyme was incubated with GSSH”.

By stoichiometry N is commonly meant the number of molecules, sites or subunits per partner or assembly. “persulfide dioxygenase from Acidithiobacillus caldus C-SH12 (AcPDO) (enzyme)”: the stoichiometry N in assay [1] was 2; in assay [2], 3.7 subunits; in assay [3] it was 2; in assay [4], 2.
